Measurements as given in US20130209454A1.

Experiments:
Experiment in all cases: cell-based or functional assay
[1] = target: HIV-1 Env of strain 231966.c02 (HIV-1)
[2] = target: HIV-1 Env of strain 3016.v5.c45 (HIV-1)
[3] = target: HIV-1 Env of strain 3301.v1.c24 (HIV-1)
[4] = target: HIV-1 Env of strain 620345.c01 (HIV-1)
[5] = target: HIV-1 Env of strain 62357_14_D3_4589 (HIV-1)
[6] = target: HIV-1 Env of strain 6540.v4.cl (HIV-1)
[7] = target: HIV-1 Env of strain 6545.v4.cl (HIV-1)
[8] = target: HIV-1 Env of strain 6811.v7.c18 (HIV-1)
[9] = target: HIV-1 Env of strain 89-F1_2_25 (HIV-1)
[10] = target: HIV-1 Env of strain 928-28 (HIV-1)
[11] = target: HIV-1 Env of strain CAP45.2.00.G3 (HIV-1)
[12] = target: HIV-1 Env of strain CNE20 (HIV-1)
[13] = target: HIV-1 Env of strain CNE53 (HIV-1)
[14] = target: HIV-1 Env of strain CNE58 (HIV-1)
[15] = target: HIV-1 Env of strain Ce1176_A3 (HIV-1)
[16] = target: HIV-1 Env of strain Ce2060_G9 (HIV-1)
[17] = target: HIV-1 Env of strain HIV-16845-2.22 (HIV-1)
[18] = target: HIV-1 Env of strain P1981_C5_3 (HIV-1)
[19] = target: HIV-1 Env of strain PVO.4 (HIV-1)
[20] = target: HIV-1 Env of strain R1166.c01 (HIV-1)
[21] = target: HIV-1 Env of strain RHPA4259.7 (HIV-1)
[22] = target: HIV-1 Env of strain T257-31 (HIV-1)
[23] = target: HIV-1 Env of strain TRO.11 (HIV-1)
[24] = target: HIV-1 Env of strain X1193_c1 (HIV-1)
[25] = target: HIV-1 Env of strain ZM135M.PL10a (HIV-1)
[26] = target: HIV-1 Env of strain ZM247v1(Rev-) (HIV-1)
[27] = target: HIV-1 Env of strain ZM249M.PL1 (HIV-1)
[28] = target: HIV-1 strain 1054_07_TC4_1499 envelope (gp120) (HIV-1)
[29] = target: HIV-1 strain 3301.v1.c24 envelope (gp120) (HIV-1)
[30] = target: HIV-1 strain 3718.v3.c11 envelope (gp120) (HIV-1)
[31] = target: HIV-1 strain C1080.c03 envelope (gp120) (HIV-1)
[32] = target: HIV-1 strain CNE20 envelope (gp120) (HIV-1)
[33] = target: HIV-1 strain CNE53 envelope (gp120) (HIV-1)
[34] = target: HIV-1 strain CNE58 envelope (gp120) (HIV-1)
[35] = target: HIV-1 strain Ce0393_C3 envelope (gp120) (HIV-1)
[36] = target: HIV-1 strain HIV-16845-2.22 envelope (gp120) (HIV-1)
[37] = target: HIV-1 strain P0402_c2_11 envelope (gp120) (HIV-1)
[38] = target: HIV-1 strain P1981_C5_3 envelope (gp120) (HIV-1)
[39] = target: HIV-1 strain Q259.d2.17 envelope (gp120) (HIV-1)
[40] = target: HIV-1 strain R2184.04 envelope (gp120) (HIV-1)
[41] = target: HIV-1 strain RHPA4259.7 envelope (gp120) (HIV-1)
[42] = target: HIV-1 strain SC422661.8 envelope (gp120) (HIV-1)
[43] = target: HIV-1 strain T250-4 envelope (gp120) (HIV-1)
[44] = target: HIV-1 strain THRO4156.18 envelope (gp120) (HIV-1)
[45] = target: HIV-1 strain WEAU_d15_410_787 envelope (gp120) (HIV-1)
[46] = target: HIV-1 strain X1254_c3 envelope (gp120) (HIV-1)
[47] = target: HIV-1 strain X2131_C1_B5 envelope (gp120) (HIV-1)
[48] = target: HIV-1 strain ZM109F.PB4 envelope (gp120) (HIV-1)
[49] = target: HIV-1 strain ZM247v1(Rev-) envelope (gp120) (HIV-1)
[50] = target: HIV-1 strain ZM53M.PB12 envelope (gp120) (HIV-1)

B1: NIH45-46^G54Y IgG (antibody, name in Kabat numbering, V domains shown)
VH: QVRLSQSGGQMKKPGESMRLSCRASGYEFLNCPINWIRLAPGRRPEWMGWLKPRYGAVNYARKFQGRVTMTRDVYSDTAFLELRSLTSDDTAVYFCTRGKYCTARDYYNWDFEHWGRGAPVTVSS
VL: EIVLTQSPATLSLSPGETAIISCRTSQSGSLAWYQQRPGQAPRLVIYSGSTRAAGIPDRFSGSRWGADYNLSISNLESGDFGVYYCQQYEFFGQGTKVQVDI
Binder B1 has a neutralization IC50 [1] of 0.06 µg/mL, a neutralization IC50 [2] of 17.9 µg/mL and a neutralization IC50 [3] of 0.003 µg/mL. The neutralization IC50 [4] was greater than 50 µg/mL, the neutralization IC50 [5] was 0.03 µg/mL and the neutralization IC50 [6] was greater than 50 µg/mL. It also gave a neutralization IC50 [7] greater than 50 µg/mL, a neutralization IC50 [8] of 0.011 µg/mL and a neutralization IC50 [9] greater than 50 µg/mL. The neutralization IC50 [10] was 0.12 µg/mL, the neutralization IC50 [11] was greater than 50 µg/mL and the neutralization IC50 [12] was 0.33 µg/mL. It also gave a neutralization IC50 [13] of 0.006 µg/mL, a neutralization IC50 [14] of 0.04 µg/mL and a neutralization IC50 [15] of 0.21 µg/mL. It also gave a neutralization IC50 [16] of 0.021 µg/mL, a neutralization IC50 [17] of 0.59 µg/mL and a neutralization IC50 [18] of 0.04 µg/mL. The neutralization IC50 [19] was 0.06 µg/mL, the neutralization IC50 [20] was 0.24 µg/mL and the neutralization IC50 [21] was 0.007 µg/mL. It also gave a neutralization IC50 [22] of 0.18 µg/mL, a neutralization IC50 [23] of 0.08 µg/mL and a neutralization IC50 [24] of 0.006 µg/mL. For the same binder, the neutralization IC50 [25] was 0.09 µg/mL, the neutralization IC50 [26] was 0.42 µg/mL and the neutralization IC50 [27] was 0.003 µg/mL. The neutralization IC80 [28] was 0.236 µg/mL, the neutralization IC80 [29] was 0.014 µg/mL and the neutralization IC80 [30] was 3.85 µg/mL. It also gave a neutralization IC80 [31] of 1.83 µg/mL, a neutralization IC80 [32] of 2.4 µg/mL and a neutralization IC80 [33] of 0.027 µg/mL. It also gave a neutralization IC80 [34] of 0.11 µg/mL, a neutralization IC80 [35] of 0.134 µg/mL and a neutralization IC80 [36] of 2.75 µg/mL. It also gave a neutralization IC80 [37] of 0.049 µg/mL, a neutralization IC80 [38] of 0.09 µg/mL and a neutralization IC80 [39] of 0.034 µg/mL. The neutralization IC80 [40] was 0.045 µg/mL, the neutralization IC80 [41] was 0.02 µg/mL and the neutralization IC80 [42] was 0.09 µg/mL. For the same binder, the neutralization IC80 [43] was greater than 50 µg/mL, the neutralization IC80 [44] was 2.14 µg/mL and the neutralization IC80 [45] was 0.008 µg/mL. The neutralization IC80 [46] was 0.041 µg/mL, the neutralization IC80 [47] was 0.39 µg/mL and the neutralization IC80 [48] was 0.168 µg/mL. The neutralization IC80 [49] was 3.57 µg/mL and the neutralization IC80 [50] was 0.22 µg/mL.

B2: NIH45-46^G54W IgG (antibody, name in Kabat numbering, V domains shown)
VH: QVRLSQSGGQMKKPGESMRLSCRASGYEFLNCPINWIRLAPGRRPEWMGWLKPRWGAVNYARKFQGRVTMTRDVYSDTAFLELRSLTSDDTAVYFCTRGKYCTARDYYNWDFEHWGRGAPVTVSS
VL: EIVLTQSPATLSLSPGETAIISCRTSQSGSLAWYQQRPGQAPRLVIYSGSTRAAGIPDRFSGSRWGADYNLSISNLESGDFGVYYCQQYEFFGQGTKVQVDI
B2 gave a neutralization IC50 [1] of 0.02 µg/mL, a neutralization IC50 [2] of 1.47 µg/mL and a neutralization IC50 [3] of less than 0.001 µg/mL. The neutralization IC50 [4] was greater than 50 µg/mL, the neutralization IC50 [5] was 0.02 µg/mL and the neutralization IC50 [6] was greater than 50 µg/mL. For the same binder, the neutralization IC50 [7] was 18.9 µg/mL, the neutralization IC50 [8] was less than 0.001 µg/mL and the neutralization IC50 [9] was greater than 50 µg/mL. It also gave a neutralization IC50 [10] of 0.06 µg/mL, a neutralization IC50 [11] of 32.2 µg/mL and a neutralization IC50 [12] of 0.04 µg/mL. For the same binder, the neutralization IC50 [13] was less than 0.001 µg/mL, the neutralization IC50 [14] was 0.02 µg/mL and the neutralization IC50 [15] was 0.16 µg/mL. It also gave a neutralization IC50 [16] of 0.005 µg/mL, a neutralization IC50 [17] of 0.45 µg/mL and a neutralization IC50 [18] of 0.02 µg/mL. It also gave a neutralization IC50 [19] of 0.05 µg/mL, a neutralization IC50 [20] of 0.13 µg/mL and a neutralization IC50 [21] of less than 0.001 µg/mL. The neutralization IC50 [22] was 0.13 µg/mL, the neutralization IC50 [23] was 0.04 µg/mL and the neutralization IC50 [24] was less than 0.001 µg/mL. It also gave a neutralization IC50 [25] of 0.04 µg/mL, a neutralization IC50 [26] of 0.32 µg/mL and a neutralization IC50 [27] of 0.002 µg/mL. It also gave a neutralization IC80 [28] of 0.165 µg/mL, a neutralization IC80 [29] of 0.004 µg/mL and a neutralization IC80 [30] of 0.04 µg/mL. For the same binder, the neutralization IC80 [31] was 0.91 µg/mL, the neutralization IC80 [32] was 0.48 µg/mL and the neutralization IC80 [33] was 0.005 µg/mL. It also gave a neutralization IC80 [34] of 0.05 µg/mL, a neutralization IC80 [35] of 0.089 µg/mL and a neutralization IC80 [36] of 2.1 µg/mL. It also gave a neutralization IC80 [37] of 0.023 µg/mL, a neutralization IC80 [38] of 0.07 µg/mL and a neutralization IC80 [39] of 0.014 µg/mL. For the same binder, the neutralization IC80 [40] was 0.036 µg/mL, the neutralization IC80 [41] was 0.007 µg/mL and the neutralization IC80 [42] was 0.07 µg/mL. For the same binder, the neutralization IC80 [43] was 44.9 µg/mL, the neutralization IC80 [44] was 1.81 µg/mL and the neutralization IC80 [45] was 0.003 µg/mL. It also gave a neutralization IC80 [46] of 0.018 µg/mL, a neutralization IC80 [47] of 0.24 µg/mL and a neutralization IC80 [48] of 0.07 µg/mL. The neutralization IC80 [49] was 2.6 µg/mL and the neutralization IC80 [50] was 0.16 µg/mL.
